Source: US7981423B2, “Rage fusion proteins” (Transtech Pharma, Inc., priority 2004, dated 2011)

Assays:
[1] = biological target: T1, amphoterin (Ampho) (Homo sapiens, UniProt P09429); assay: In vitro ligand binding ELISA, immobilized amphoterin; conditions: various dilutions of fusion protein; FIG. 7
T1 sequence (P09429 1-215): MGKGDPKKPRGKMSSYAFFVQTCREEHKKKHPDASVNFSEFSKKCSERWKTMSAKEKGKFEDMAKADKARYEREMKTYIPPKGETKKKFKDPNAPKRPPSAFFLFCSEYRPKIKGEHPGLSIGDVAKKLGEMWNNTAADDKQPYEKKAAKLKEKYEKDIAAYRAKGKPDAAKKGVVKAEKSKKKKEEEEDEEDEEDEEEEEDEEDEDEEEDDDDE
Method: For example, the RAGE fusion protein may be used in a binding assay to identify potential RAGE ligands. In one example embodiment of such a binding assay, a known RAGE ligand may coated onto a solid substrate (e.g., Maxisorb plates) at a concentration of about 5 micrograms per well, where each well contains a total volume of about 100 microliters (μL). The plates may be incubated at 4° C. overnight to allow the ligand to absorb. Alternatively, shorter incubation periods at higher temperature (e.g., room temperature) may be used. […] The fusion protein bound to the immobilized ligand may be detected in a variety of ways. […] The bound complex may be detected by adding the alkaline phosphatase substrate, para-nitrophenylphosphate (PNPP), and measuring conversion of PNPP to para-nitrophenol (PNP) as an increase in absorbance at 405 nm. […] Binding was detected by the addition of an immunodetection complex containing a monoclonal mouse anti-human IgG1 diluted 1:11,000 to a final assay concentration (FAC) of 21 ng/100 μL, a biotinylated goat anti-mouse IgG diluted 1:500, to a FAC of […], and an avidin-linked alkaline phosphatase. […] Binding of the complex to the immobilized fusion protein was quantified by measuring conversion of PNPP to para-nitrophenol (PNP) which was-measured spectrophotornetrically at 405 nm. […]

[2] = biological target: immobilized known RAGE ligands (HMG1B, CML, A beta); assay: Saturation binding of TTP-4000 to immobilized known RAGE ligands; conditions: fusion protein 0 to 360 nM; Graphpad Prizm; FIG. 15; figures not given
Method: The ligands are immobilized on a microtiter plate and incubated in the presence of increasing concentrations of fusion protein from 0 to 360 nM. The fusion protein-ligand interaction is detected using a polyclonal antibody conjugated with alkaline phosphatase that is specific for the IgG portion of the fusion chimera. […] HMG1B=Ampoterin, CML=Carboxymethyl Lysine, A beta=Amyloid beta 1-40.

B1: TTP-4000: four domain RAGE fusion protein (SEQ ID NO: 32): human RAGE amino acids 1-251 linked to CH2 and CH3 domains of human IgG (protein)
chain: MAAGTAVGAWALVLSLWGAVVGAQNITARIGEPLVLKCKGAPKKPPQRLEWKLNTGRTEAWKVLSPQGGGPWDSVARVLPNGSLFLPAVGIQDEGIFRCQAMNRNGKETKSNYRVRVYQIPGKPEIVDSASELTAGVPNKVGTCVSEGSYPAGTLSWHLDGKPLVPNEKGVSVKEQTRRHPETGLFTLQSELMVTPARGGDPRPTFSCSFSPGLPRHRALRTAPIQPRVWEPVPLEEVQLVVEPEGGAVAPPSVFLFPPKPKDTLMISRTPEVTCVVVDVSHEDPEVKFNWYVDGVEVHNAKTKPREEQYNSTYRVVSVLTVLHQDWLNGKEYKCKVSNKALPAPIEKTISKAKGQPREPQVYTLPPSRDELTKNQVSLTCLVKGFYPSDIAVEWESNGQPENNYKTTPPVLDSDGSFFLYSKLTVDKSRWQQGNVFSCSVMHEALHNHYTQKSLSLSPGK
B1 was tested, and the “binding to immobilized amphoterin (absorbance at 405 nm)” value [1] was “specifically interact” and the “Relative Kds” value [2] was “match with established literature values”.
